From patent US20190233517A1
One block for each substance: values may come before it.

Columns and labels:
[1] = target: Daudi; assay: FACS binding; Daudi cells
[2] = target: Raji (human) (UniProt P11836); assay: FACS binding; Raji cells
[3] = target: HER3 (UniProt P21860); assay: kinetic binding data, method not stated

Raji (human), sequence (P11836 whole entry): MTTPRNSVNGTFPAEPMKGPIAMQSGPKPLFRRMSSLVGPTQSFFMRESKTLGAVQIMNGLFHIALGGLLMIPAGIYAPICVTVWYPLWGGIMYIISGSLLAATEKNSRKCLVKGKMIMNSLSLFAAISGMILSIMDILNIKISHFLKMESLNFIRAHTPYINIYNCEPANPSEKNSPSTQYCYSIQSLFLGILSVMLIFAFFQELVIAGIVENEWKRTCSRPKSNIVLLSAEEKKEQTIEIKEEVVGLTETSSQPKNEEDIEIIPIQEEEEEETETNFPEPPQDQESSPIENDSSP

EC50 [1]: 6.98 nM
Substance: Epratuzumab/ Ofatumumab (1:1)

EC50 [2]: 3.25 nM
Substance: Epratuzuman/ Ofatumumab (1:1)

Kd [3]: 0.0321 nM
Substance: FIT019a-Ig HER3 (patritumab)/EGFR (Panitumumab) (bispecific antibody)
